In patent publication CN112239498A:

Experiments:
[1] = biological target: 1aE2C、1bE2C、2aE2C、3aE2C、4aE2C、5aE2C、6aE2C; test: ELISA, coated E2C of seven subtypes
[2] = biological target: 1bE2C (Hepatitis C virus, subtype 1b); test: ELISA, coated 1bE2C, anti-human IgG-HRP detection

B1: 抗体HNC-5 (antibody, V domains shown)
VH: QVQLVQSGAEVKKPGSSVKVSCKVSGVTFKGYAISWVRQAPGQGLEWMGSVIPIFGAANYAQQFQGRVTITADESTSTAYMELRSLKFDDTAVYYCGRGDQLLWGITAFHYWGQGTLVTVSS
VL: EIVLTQSPGTLPLSPGEGATLSCRASHIVTSNNLAWYQQKPGQAPRLLIYGASNRATGIPDRFSGSGSGTDFTLTISRLEPEDFAMYYCQQYGSSPGTFGQGTKLEIK
In the case of B1, the EC50 [1] is reported as 0.00216 to 0.0226 µg/mL and the EC50 [2] is reported as 0.016 µg/mL.
